{"source": "patent US20150050309A1", "binders": {"B1": {"name": "urtica diotica (UDA) lectin (protein, UniProt P11218 24-112, looked up)", "chain": "QRCGSQGGGGTCPALWCCSIWGWCGDSEPYCGRTCENKCWSGERSDHRCGAAVGNPPCGQDRCCSVHGWCGGGNDYCSGSKCQYRCSSS"}, "B2": {"name": "galanthus nivalis lectin (protein, UniProt P30617 24-128, looked up)", "chain": "DNILYSGETLSTGEFLNYGSFVFIMQEDCNLVLYDVDKPIWATNTGGLSRSCFLSMQTDGNLVVYNPSNKPIWASNTGGQNGNYVCILQKDRNVVIYGTDRWATG"}}, "experiment_in_all_cases": "cell-based or functional assay", "key": {"[1]": {"biological_target": "HIV Env of primary isolate DU123 (HIV)"}, "[2]": {"biological_target": "HIV Env of primary isolate DU422 (HIV)"}, "[3]": {"biological_target": "HIV Env of primary isolate SF162 (HIV)"}, "[4]": {"biological_target": "HIV Env of primary isolate BG1168 (HIV)"}, "[5]": {"biological_target": "HIV Env of primary isolate TV-1 (HIV)"}, "[6]": {"biological_target": "HIV Env of primary isolate 6101 (HIV)"}}, "data": [{"binder": "B1", "values": [{"measurement": "neutralization titer of HIV primary isolate", "setting": "[1]", "value": 1580, "unit": "titer"}, {"measurement": "neutralization titer of HIV primary isolate", "setting": "[2]", "value": 468, "unit": "titer"}, {"measurement": "neutralization titer of HIV primary isolate", "setting": "[3]", "value": 467, "unit": "titer"}, {"measurement": "neutralization titer of HIV primary isolate", "setting": "[4]", "value": 190, "unit": "titer"}, {"measurement": "neutralization titer of HIV primary isolate", "setting": "[5]", "value": 600, "unit": "titer"}, {"measurement": "neutralization titer of HIV primary isolate", "setting": "[6]", "value": 428, "unit": "titer"}]}, {"binder": "B2", "values": [{"measurement": "neutralization titer of HIV primary isolate (lectin at 400 ug/ml)", "setting": "[1]", "value": "> 43700", "unit": "titer"}, {"measurement": "neutralization titer of HIV primary isolate (lectin at 400 ug/ml)", "setting": "[2]", "value": "> 43700", "unit": "titer"}, {"measurement": "neutralization titer of HIV primary isolate (lectin at 400 ug/ml)", "setting": "[3]", "value": 22400, "unit": "titer"}, {"measurement": "neutralization titer of HIV primary isolate (lectin at 400 ug/ml)", "setting": "[4]", "value": "< 20", "unit": "titer"}, {"measurement": "neutralization titer of HIV primary isolate (lectin at 400 ug/ml)", "setting": "[5]", "value": "> 43700", "unit": "titer"}, {"measurement": "neutralization titer of HIV primary isolate (lectin at 400 ug/ml)", "setting": "[6]", "value": 724, "unit": "titer"}]}]}
